Reference: patent publication US5849885

Biological target: casein fraction of whole cow milk
Test: competitive inhibition RIA of bLF in the casein pellet after centrifugation of whole cow milk, no addition (mean + SD, n=10); the same table gives 4 with +0.4M NaCl and 32 after acid precipitation

Which % of total bLF found in the casein fraction does the source give for “bovine lactoferrin (from UniProt P24627)” here?
Its % of total bLF found in the casein fraction is 21%.
